Reference: article PMC8554075

Biological target: unmutated common ancestor of the AB-3467 clonal lineage, expressed as human IgG1 (human V(D)J (Ig-humanized TRIANNI mouse))
Assay: BLI

For “SARS-CoV-2 receptor-binding domain (from UniProt P0DTC2 333-528) (domain or fragment)”, the Kd was 499 nM.
